Experimental data published in US20200062863A1 (CSL BEHRING, published 2020).

Tests used:
human Factor XIIa-alpha = target: T1, human Factor XIIa-alpha (human, UniProt P00748 20-615); experiment: cell-based or functional assay
T1 sequence: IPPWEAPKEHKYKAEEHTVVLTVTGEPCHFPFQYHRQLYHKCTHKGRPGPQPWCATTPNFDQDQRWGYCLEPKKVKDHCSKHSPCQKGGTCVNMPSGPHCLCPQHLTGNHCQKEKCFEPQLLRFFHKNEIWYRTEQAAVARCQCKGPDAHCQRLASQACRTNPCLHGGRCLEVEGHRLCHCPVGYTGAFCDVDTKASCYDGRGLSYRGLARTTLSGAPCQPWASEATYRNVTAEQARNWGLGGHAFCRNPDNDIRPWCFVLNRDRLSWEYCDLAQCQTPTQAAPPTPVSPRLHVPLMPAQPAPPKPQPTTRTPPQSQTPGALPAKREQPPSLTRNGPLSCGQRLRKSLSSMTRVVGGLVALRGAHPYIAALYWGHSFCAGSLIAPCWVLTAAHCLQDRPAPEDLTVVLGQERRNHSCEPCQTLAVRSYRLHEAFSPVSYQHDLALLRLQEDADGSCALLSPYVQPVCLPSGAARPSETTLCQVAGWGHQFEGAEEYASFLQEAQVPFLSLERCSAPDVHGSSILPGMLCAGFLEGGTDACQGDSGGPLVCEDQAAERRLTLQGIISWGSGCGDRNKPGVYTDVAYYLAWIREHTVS

human FXIIa [1] = target: T2, human FXIIa (human, UniProt P00748 20-615, limits assumed); experiment: cell-based or functional assay
T2 sequence: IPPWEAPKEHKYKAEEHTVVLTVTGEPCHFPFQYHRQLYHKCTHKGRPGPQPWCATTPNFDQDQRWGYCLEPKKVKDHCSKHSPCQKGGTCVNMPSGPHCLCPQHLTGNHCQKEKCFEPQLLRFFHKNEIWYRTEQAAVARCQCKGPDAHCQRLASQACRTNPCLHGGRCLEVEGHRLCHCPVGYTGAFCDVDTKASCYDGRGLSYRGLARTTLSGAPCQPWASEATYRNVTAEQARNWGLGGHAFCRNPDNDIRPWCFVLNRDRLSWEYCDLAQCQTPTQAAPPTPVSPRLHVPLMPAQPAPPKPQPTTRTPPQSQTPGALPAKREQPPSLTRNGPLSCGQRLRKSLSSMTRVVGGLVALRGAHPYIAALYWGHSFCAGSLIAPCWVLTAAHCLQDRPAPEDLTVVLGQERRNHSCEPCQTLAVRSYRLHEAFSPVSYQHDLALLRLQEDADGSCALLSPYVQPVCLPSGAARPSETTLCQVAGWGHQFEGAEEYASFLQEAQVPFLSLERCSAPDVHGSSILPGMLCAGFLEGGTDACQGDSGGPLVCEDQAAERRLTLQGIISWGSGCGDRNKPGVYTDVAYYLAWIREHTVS

[2] = target: T3, recombinant wild-type murine Factor XII (Mu-FXII) with C-terminal 8xHis-tag (mouse, UniProt Q80YC5 20-597); experiment: Western blot, non-reducing
T3 construct: cDNA of the entire Mu-FXII protein (GenBank NM_021489) expressed in Freestyle 293 cells, culture supernatant used; also called recombinant murine FXII; wild-type Mu-FXII
T3 sequence: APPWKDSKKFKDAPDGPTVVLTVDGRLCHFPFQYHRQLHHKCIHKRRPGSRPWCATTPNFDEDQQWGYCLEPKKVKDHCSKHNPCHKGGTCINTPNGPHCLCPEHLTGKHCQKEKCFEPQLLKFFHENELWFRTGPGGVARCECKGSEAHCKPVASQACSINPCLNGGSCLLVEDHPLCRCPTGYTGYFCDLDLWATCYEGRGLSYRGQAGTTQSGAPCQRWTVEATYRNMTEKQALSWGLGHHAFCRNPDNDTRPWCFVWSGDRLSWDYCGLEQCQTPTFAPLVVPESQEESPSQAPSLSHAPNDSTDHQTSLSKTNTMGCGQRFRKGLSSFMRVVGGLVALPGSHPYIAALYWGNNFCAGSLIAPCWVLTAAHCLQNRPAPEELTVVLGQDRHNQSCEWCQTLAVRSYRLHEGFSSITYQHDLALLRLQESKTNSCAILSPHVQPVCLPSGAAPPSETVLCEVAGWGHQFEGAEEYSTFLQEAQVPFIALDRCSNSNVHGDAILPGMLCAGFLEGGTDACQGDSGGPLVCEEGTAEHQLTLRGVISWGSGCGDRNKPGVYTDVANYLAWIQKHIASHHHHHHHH
Protocol: Proteins were then transferred electrophoretically onto nitrocellulose filters and blocked for 1 hour in 5% Milk powder in Tris-buffered saline with 0.05% Tween-20 (TTBS). Filters were then incubated for 1 hour with either 3F7 mAb or an anti-His mAb 3H3 (both at […] in TTBS with 5% Milk powder), washed thoroughly with TTBS, then incubated for a further hour with anti-human IgG-FITC or anti-mouse IgG-FITC, respectively (Millipore, USA; both at 0.25 mg/ml in TTBS with 5% Milk powder). Following further washing of membranes in TTBS, Ab-FITC bound proteins were visualized using a Typhoon variable mode analyzer (GE Healthcare, USA).

human Factor XII = target: T4, human Factor XII (human, UniProt P00748 20-615); experiment: SPR (Biacore), purified IgG captured on anti-human IgG, FXII 0-500 nM, 1:1 fit, 25 C
T4 construct: Zymogen bought from Enzyme Research Laboratories; also called FXII
T4 sequence: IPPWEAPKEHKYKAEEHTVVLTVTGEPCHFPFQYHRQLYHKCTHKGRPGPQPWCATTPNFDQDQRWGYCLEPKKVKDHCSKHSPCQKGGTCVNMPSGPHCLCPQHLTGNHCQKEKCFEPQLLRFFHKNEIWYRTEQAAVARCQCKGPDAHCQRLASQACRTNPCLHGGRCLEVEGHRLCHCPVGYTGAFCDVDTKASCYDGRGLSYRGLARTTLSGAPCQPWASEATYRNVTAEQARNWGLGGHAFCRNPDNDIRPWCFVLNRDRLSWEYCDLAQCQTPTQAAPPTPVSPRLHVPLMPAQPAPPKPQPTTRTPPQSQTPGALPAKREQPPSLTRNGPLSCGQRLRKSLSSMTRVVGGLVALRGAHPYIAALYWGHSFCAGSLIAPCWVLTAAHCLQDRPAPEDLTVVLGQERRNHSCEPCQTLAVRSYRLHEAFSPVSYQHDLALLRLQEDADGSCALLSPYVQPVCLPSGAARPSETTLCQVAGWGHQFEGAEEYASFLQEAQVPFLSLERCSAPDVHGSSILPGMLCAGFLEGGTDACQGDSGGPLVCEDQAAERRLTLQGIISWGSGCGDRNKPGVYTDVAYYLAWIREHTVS

human Factor XIIa-beta [3] = target: T5, human Factor XIIa-beta (human, UniProt P00748 354-615, limits assumed); experiment: SPR (Biacore), purified IgG4 captured on anti-human IgG, FXIIa beta 0-40 nM, 1:1 fit, 25 C
T5 construct: Bought from Enzyme Research Laboratories; also called FXIIa beta; FXIIa-beta
T5 sequence: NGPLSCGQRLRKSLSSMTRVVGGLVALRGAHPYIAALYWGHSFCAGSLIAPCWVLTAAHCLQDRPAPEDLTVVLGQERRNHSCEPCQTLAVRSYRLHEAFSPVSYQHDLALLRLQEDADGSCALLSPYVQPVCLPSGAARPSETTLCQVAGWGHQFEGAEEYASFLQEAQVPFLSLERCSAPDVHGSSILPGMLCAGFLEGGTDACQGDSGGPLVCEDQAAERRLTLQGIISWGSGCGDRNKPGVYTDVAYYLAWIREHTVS

human FXIIa [4] = target: T2, human FXIIa; experiment: cell-based or functional assay; remark: listed apart in the source
human Factor XIIa-beta [5] = target: T5, human Factor XIIa-beta; experiment: SPR (Biacore), KD against parental 3F7
human Factor XIIa-beta [6] = target: T5, human Factor XIIa-beta; experiment: SPR (Biacore A100), unpurified IgG4 supernatant captured on anti-human IgG, single FXIIa beta concentration (100 nM), 37 C, 1:1 fit; estimated
Protocol: Anti-human (Goat anti-human IgG (gamma) mouse adsorbed, Invitrogen, Cat No. H10500) was chemically immobilised on a CM-5 sensor surface using amine coupling chemistry. Culture supernatants were diluted 1/60 with running buffer before capture. Antibodies were captured for 180 seconds representing an average capture of 800 response units (RU). FXIIa beta was then injected at zero and 100 nM for 180 seconds, and dissociated for 180 seconds. All assays were conducted on a Biacore A100 instrument at 37 degrees Celsius and the data fitted to a 1:1 kinetic model.

human Factor XIIa-beta [7] = target: T5, human Factor XIIa-beta; experiment: SPR (Biacore), purified IgG captured on anti-human IgG, FXIIa beta 0-40 nM, 1:1 fit, 25 C

B1: monoclonal antibody 3F7 (fully human IgG4/lambda) (antibody, V domains shown)
VH: EVQLLESGGGLVQPGGSLRLSCAASGFTFSKYIMQWVRQAPGKGLEWVSGIRPSGGTTVYADSVKGRFTISRDNSKNTLYLQMNSLRAEDTAVYYCARALPRSGYLISPHYYYYALDVWGQGTTVTVSS
VL: QSELTQPPSASGTPGQRVTISCSGSSSNIGRNYVYWYQQVPGTAPKLLIYSNNQRPSGVPDRFSGSKSGTSASLVISGLRSEDEADYYCAAWDASLRGVFGGGTKLTVLG
notes: also called 3F7 mAb; MAb 3F7
% Inhibition, ratio FXIIa-alpha:Antibody 1:0.1 (human Factor XIIa-alpha): 35.5%
% Inhibition, ratio FXIIa-alpha:Antibody 1:0.1 (second 3F7 block) (human Factor XIIa-alpha): 38.3%
% Inhibition, ratio FXIIa-alpha:Antibody 1:0.2 (human Factor XIIa-alpha): 62.5%
% Inhibition, ratio FXIIa-alpha:Antibody 1:0.2 (second 3F7 block) (human Factor XIIa-alpha): 66.8%
% Inhibition, ratio FXIIa-alpha:Antibody 1:0.5 (human Factor XIIa-alpha): 91.9%
% Inhibition, ratio FXIIa-alpha:Antibody 1:0.5 (second 3F7 block) (human Factor XIIa-alpha): 91.4%
% Inhibition, ratio FXIIa-alpha:Antibody 1:1 (human Factor XIIa-alpha): 97.9%
% Inhibition, ratio FXIIa-alpha:Antibody 1:1 (second 3F7 block) (human Factor XIIa-alpha): 96.1%
% Inhibition, ratio FXIIa-alpha:Antibody 1:2 (human Factor XIIa-alpha): 100%
% Inhibition, ratio FXIIa-alpha:Antibody 1:2 (second 3F7 block) (human Factor XIIa-alpha): 100%
% Inhibition, ratio FXIIa-alpha:Antibody 1:5 (human Factor XIIa-alpha): 100%
% Inhibition, ratio FXIIa-alpha:Antibody 1:5 (second 3F7 block) (human Factor XIIa-alpha): 100%
% Inhibition, ratio FXIIa-alpha:Antibody 1:10 (human Factor XIIa-alpha): 100%
% Inhibition, ratio FXIIa-alpha:Antibody 1:10 (second 3F7 block) (human Factor XIIa-alpha): 100%
IC50 (read off the curve) (human FXIIa [1]): ~10 nM
binding result [2]: binds
Kd (human Factor XII): 121 nM
Kd (human Factor XIIa-beta [3]): 8.6 nM
koff (human Factor XIIa-beta [3]): 0.0011 s⁻¹
kon (human Factor XIIa-beta [3]): 120000 M⁻¹ s⁻¹
potency in the FXIIa amidolytic activity assay, against OT-2 (human FXIIa [4]): ~2 fold
Fold affinity improvement (human Factor XIIa-beta [5]): 1 fold
Kd (human Factor XIIa-beta [6]): 33 nM
Kd (human Factor XIIa-beta [7]): 6.2 nM
